Drawing on patent publication JP2020188737A, this text covers ピーク1(結合力が弱いピーク)の面積割合 and ピーク3(結合力が強いピーク)の面積割合 for one molecule.

Assay [1] has as its target ヒトFcγRIIIaを固定化した担体(分離剤)を詰めたカラム(FcR9_Fカラム、WO2018/150973号の実施例5に記載). Put plainly: FcγRIIIa affinity chromatography (FcR9_F column), peak area share; antibody from 9-day jar fermenter batch culture with 1 mM L-glutamine.
Assay [2] shares this target. The experiment in a line: FcγRIIIa affinity chromatography (FcR9_F column), peak area share; antibody from 9-day jar fermenter batch culture with 10 mM L-glutamine.

B1: 抗インターロイキン6レセプター(IL−6R)抗体 (antibody, human IgG1, V domains shown)
VH: QVQLQESGPGLVRPSQTLSLTCTVSGYSITSDHAWSWVRQPPGRGLEWIGYISYSGITTYNPSLKSRVTMLRDTSKNQFSLRLSSVTAADTAVYYCARSLARTTAMDYWGQGSLVTVSS
VL: DIQMTQSPSSLSASVGDRVTITCRASQDISSYLNWYQQKPGKAPKLLIYYTSRLHSGVPSRFSGSGSGTDFTFTISSLQPEDIATYYCQQGNTLPYTFGQGTKVEIK
On to B1, for which the ピーク1(結合力が弱いピーク)の面積割合 was 25% in assay [1] and 42.3% in assay [2]. The ピーク3(結合力が強いピーク)の面積割合 in assay [1] worked out at 36%; in assay [2], 22.1%.
